The text below walks through data of patent publication US20040014159.

In data set [1] the test system is T1, bis-SPK-2 (KKALRRASLKG-R110-GKLSARRLAKK).
T1 sequence: KKALRRASLKG

The test system of data set [2] is T2, bis-STP-R110 (RRAT(PO3)VA-R110-AV(PO3)TARR).
T2 sequence: RRATVA

Data set [3] has as its system T3, kemptide-AMC (LRRASLG-AMC).
T3 sequence: LRRASLG

Data set [4] concerns T4, LRRASLG-R110-GLSARRL, bis-rhodamine peptide kinase substrate (bis-kemptide).
T4 sequence: LRRASLG

Data set [5] concerns T5, bis-SPK-4 (KKALRKASVRG-R110-GRVSAKRLAKK).
T5 sequence: KKALRKASVRG

Data set [6] has as its system T6, bis-PTK-5 (YIYGAFKRRG-R110-GRRKFAGYIY).
T6 sequence: YIYGAFKRRG

Data set [7] has as its system T7, bis-PTK5p-R110 (YIY(PO3)GAFKRRG-R110-GRRKFAG(PO3)YIY).
T7 sequence: YIYGAFKRRG

The target of data set [8] is T8, bis-PTK5p-R110 (YIY(PO3)GAFKRRG-R110-GRRKFAG(PO3)YIY) (not fully specified).
T8 chain: YIYGAFKRRG

For the molecule PKC, the “fluorescence output after aminopeptidase M” value in data set [1] is given as “the change in output fluorescence in each assay was inversely proportional to the amount of enzyme in the reaction (Results not shown)”.
On to PP1, for which the “fluorescence output after aminopeptidase M” value in data set [2] was “The results obtained show excellent proportionality between the fluorescence output and dephosphorylation of the substrate”.
With “catalytic subunit of cAMP-dependent protein kinase (PKA)”, in data set [3], the “fluorescence output (AMC) after aminopeptidase M, with and without 50 uM ATP” value is reported as “In the presence of ATP, the fluorescence output decreased in proportion to the increase in amount of enzyme”. Further, the “fluorescence output (RFU) after aminopeptidase M” value in data set [4] is “there is a corresponding decrease in fluorescence output with increasing concentration or units of enzyme in the reaction”. The “kinase reaction, fluorescence output after aminopeptidase M” value in data set [1] and in data set [5] was “the peptide substrate bis-SPK-2 is a better substrate for PKA than the peptide substrate bis-SPK-4” throughout.
With tyrosine kinase lck, in data set [6], the “fluorescence output after aminopeptidase M, with and without 100 uM ATP” value is “where 100 um ATP was included the decrease in fluorescence output was proportional to the increase in amount of enzyme in the reaction, and little or no change was observed in the absence of ATP”.
On to PKG, for which the “fluorescence output after aminopeptidase M” value in data set [1] is listed as “the change in output fluorescence in each assay was inversely proportional to the amount of enzyme in the reaction (Results not shown)”.
Same read-out and setting: to AKT belongs “the change in output fluorescence in each assay was inversely proportional to the amount of enzyme in the reaction (Results not shown)”.
YOP 51: the “fluorescence output after aminopeptidase M” value in data set [7] is “A similar profile was obtained with other tyrosine phosphatases, including YOP 51”.
Take PP2C: the “fluorescence output after aminopeptidase M” value in data set [2] is “The results obtained show excellent proportionality between the fluorescence output and dephosphorylation of the substrate”.
On to serine/threonine phosphatase PP2A, for which, in data set [2], the “fluorescence output after Aminopeptidase II” value is “an increase in phosphatase activity resulted in an increase in fluorescence”; the “fluorescence output after aminopeptidase M” value was “PP2A dephosphorylated the substrate efficiently, and fluorescence increased proportionally to the amount of enzyme in the reaction”.
Take PP2B: the “fluorescence output after aminopeptidase M” value in data set [2] was “The results obtained show excellent proportionality between the fluorescence output and dephosphorylation of the substrate”.

B1: PTP-1B, soluble tyrosine phosphatase (enzyme, UniProt P18031 1-435, looked up, species assumed)
Tyrosine-protein phosphatase non-receptor type 1: MEMEKEFEQIDKSGSWAAIYQDIRHEASDFPCRVAKLPKNKNRNRYRDVSPFDHSRIKLHQEDNDYINASLIKMEEAQRSYILTQGPLPNTCGHFWEMVWEQKSRGVVMLNRVMEKGSLKCAQYWPQKEEKEMIFEDTNLKLTLISEDIKSYYTVRQLELENLTTQETREILHFHYTTWPDFGVPESPASFLNFLFKVRESGSLSPEHGPVVVHCSAGIGRSGTFCLADTCLLLMDKRKDPSSVDIKKVLLEMRKFRMGLIQTADQLRFSYLAVIEGAKFIMGDSSVQDQWKELSHEDLEPPPEHIPPPPRPPKRILEPHNGKCREFFPNHQWVKEETQEDKDCPIKEEKGSPLNAAPYGIESMSQDTEVRSRVVGGSLRGAQAASPAKGEPSLPEKDEDHALSYWKPFLVNMCVATVLTAGAYLCYRFLFNSNT
For B1, the “fluorescence output after aminopeptidase M” value in data set [7] is listed as “the increase in the fluorescence output is proportional to the amount of phosphatase added per reaction”.

B2: CD45, recombinant human receptor protein tyrosine phosphatase (protein)
chain: SCNLDEQQELVERDDEKQLMNVEPIHADILLETYKRKIADEGRLFLAEFQSIPRVFSKFPIKEARKPFNQNKNRYVDILPYDYNRVELSEINGDAGSNYINASYIDGFKEPRKYIAAQGPRDETVDDFWRMIWEQKATVIVMVTRCEEGNRNKCAEYWPSMEEGTRAFGDVVVKINQHKRCPDYIIQKLNIVNKKEKATGREVTHIQFTSWPDHGVPEDPHLLLKLRRRVNAFSNFFSGPIVVHCSAGVGRTGTYIGIDAMLEGLEAENKVDVYGYVVKLRRQRCLMVQVEAQYILIHQALVEYNQFGETEVNLSELHPYLHNMKKRDPPSEPSPLEAEFQRLPSYRSWRTQHIGNQEENKSKNRNSNVIPYDYNRVPLKHELEMSKESEHDSDESSDDDSDSEEPSKYINASFIMSYWKPEVMIAAQGPLKETIGDFWQMIFQRKVKVIVMLTELKHGDQEICAQYWGEGKQTYGDIEVDLKDTDKSSTYTLRVFELRHSKRKDSRTVYQYQYTNWSVEQLPAEPKELISMIQVVKQKLPQKNSSEGNKHHKSTPLLIHCRDGSQQTGIFCALLNLLESAETEEVVDIFQVVKALRKARPGMVSTFEQYQFLYDVIASTYPAQNGQVKKNNHQEDKIEFDNEVDKVKQDANCVNPLGAPEKLPEAKEQAEGSEPTSGTEGPEHSVNGPASPALNQGS
For B2, the “fluorescence output after aminopeptidase M” value in data set [8] is “the increase in the fluorescence output is proportional to the amount of phosphatase added per reaction”.
